In the assay the target is T1, mouse ICOSL (mouse, UniProt Q9JHJ8 47-279, limits assumed).
T1 construct: Target of ELSS1 panning; also called mICOSL
T1 sequence (looked up): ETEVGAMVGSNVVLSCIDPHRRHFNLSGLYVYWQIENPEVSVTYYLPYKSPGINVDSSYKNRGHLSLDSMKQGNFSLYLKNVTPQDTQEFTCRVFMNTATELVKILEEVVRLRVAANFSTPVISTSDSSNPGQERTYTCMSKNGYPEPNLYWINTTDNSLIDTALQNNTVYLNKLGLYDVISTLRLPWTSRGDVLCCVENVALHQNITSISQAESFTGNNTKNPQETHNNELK
The assay can be described thus: lead clones against targets used to screen ELSS1; alignment legend.

B1: SEQ ID NO 41 (VNAR)
VNAR: ASVNQTPRTATKETGESLTINCVLTDTGYGWFATSWFRKNPGTTDWERMSIGGRYVESVNKGAKSFSLRIKDLTVADSATYICRADMWPKNTKYSPDVYGAGTVLTVN
notes: VNAR
In the case of B1, the binding result is reported as “binds”.

B2: SEQ ID NO 42 (VNAR)
VNAR: TRVDQTPRTATKETGESLTINCVLTDTEYGLFSTSWFRKNPGTTDWERMSIGGRYVESVNKGAKSFSLRIKDLTVADSATYYCKALGWWPPAFPHWYDGAGTVLTVN
notes: VNAR
As for B2, the binding result is “binds”.

B3: SEQ ID NO 45 (VNAR)
VNAR: TRVDQTPRTATKETGESLTINCVLTDTGYGLFSTSWFRKNPGTTDWERMSIGGRYVESVNKGAKSFSLRIKDLTVADSATYYCKALGWIPPEFPHWYDGAGTVLTVN
notes: VNAR
As for B3, the binding result is “binds”.

B4: SEQ ID NO 44 (VNAR)
VNAR: TRVDQTPRTATKETGESLTINCVLTDTSYGWFSTSWFRKNPGTTDWERMSIGGRYVESVNKGAKSFSLRIKDLTVADSATYICRAQAAIPDFPRYVYGAGTVLTVN
notes: VNAR
On to B4, for which the binding result is recorded as “binds”.

B5: SEQ ID NO 43 (VNAR)
VNAR: TRVDQTPRTATKETGESLTINCVLTDTRYALYSTSWFRKNPGTTDWERMSIGGRYVESVNKGAKSFSLRIKDLTVADSATYICRANEMMPPMDVYGAGTVLTVN
notes: VNAR
Consider B5, for which the binding result is given as “binds”.

Source of the values: patent publication US20200002403A1 (UNIVERSITY COURT OF THE UNIVERSITY OF ABERDEEN, published 2020).
